Publication PMC4595643, “Pathways of allosteric regulation in Hsp70 chaperones” (Nature Communications, 2015)
Ends that are not written are not given here. * marks the point of attachment. IAANS = 2-(4'-(iodoacetamido)anilino)naphthalene-6-sulfonic acid label, O=C(C*)Nc1ccc(Nc2ccc3cc(S(=O)(=O)O)ccc3c2)cc1; HiLyte Fluor 488 maleimide = HiLyte Fluor 488-maleimide (Anaspec) label

Assays:
Details in all cases: both partners purified
wild-type DnaK [1] = molecular target: T1, wild-type DnaK (Escherichia coli, UniProt P0A6Y8 1-638); assay: MST; 100 nM HiLyte Fluor 488-labelled peptide with 0.6 nM-10 μM DnaK, HKM buffer (25 mM HEPES/KOH pH 7.6, 50 mM KCl, 5 mM MgCl2) with 0.1% Tween-20, incubated at least 30 min, 30 °C, Monolith NT.115
T1 construct: DnaK, the Hsp70 of Escherichia coli; also called DnaKwt; Wt; source: E. coli ΔdnaK52 cells (BB1553), purified (Ni-IDA, Resource Q), nucleotides removed

DnaK-V440A [2] = molecular target: T2, DnaK-V440A (Escherichia coli, UniProt P0A6Y8 1-638, V440A); assay: as above
T2 construct: DnaK, the Hsp70 of Escherichia coli, Val440 replaced by alanine; source: E. coli ΔdnaK52 cells (BB1553), purified (Ni-IDA, Resource Q), nucleotides removed

DnaK-L484A [3] = molecular target: T3, DnaK-L484A (Escherichia coli, UniProt P0A6Y8 1-638, L484A); assay: as above
T3 construct: DnaK, the Hsp70 of Escherichia coli, Leu484 replaced by alanine; source: E. coli ΔdnaK52 cells (BB1553), purified (Ni-IDA, Resource Q), nucleotides removed

DnaK-D148A [4] = molecular target: T4, DnaK-D148A (Escherichia coli, UniProt P0A6Y8 1-638, D148A); assay: as above
T4 construct: DnaK, the Hsp70 of Escherichia coli, Asp148 replaced by alanine; source: E. coli ΔdnaK52 cells (BB1553), purified (Ni-IDA, Resource Q), nucleotides removed

wild-type DnaK [5] = molecular target: T1, wild-type DnaK; assay: fluorescence dissociation kinetics (chase with unlabelled peptide); no nucleotide; 0.5 μM DnaK and 0.5 μM IAANS-labelled peptide pre-incubated at least 30 min, then mixed with 50-fold excess of unlabelled peptide; HKM buffer, 30 °C; Perkin Elmer LS55
DnaK-F146A = molecular target: T5, DnaK-F146A (Escherichia coli, UniProt P0A6Y8 1-638, F146A); assay: as above
T5 construct: DnaK, the Hsp70 of Escherichia coli, Phe146 replaced by alanine; source: E. coli ΔdnaK52 cells (BB1553), purified (Ni-IDA, Resource Q), nucleotides removed

DnaK-D148A [6] = molecular target: T4, DnaK-D148A; assay: as above
DnaK-Y145F = molecular target: T6, DnaK-Y145F (Escherichia coli, UniProt P0A6Y8 1-638, Y145F); assay: as above
T6 construct: DnaK, the Hsp70 of Escherichia coli, Tyr145 replaced by phenylalanine; source: E. coli ΔdnaK52 cells (BB1553), purified (Ni-IDA, Resource Q), nucleotides removed

DnaK-Y145H = molecular target: T7, DnaK-Y145H (Escherichia coli, UniProt P0A6Y8 1-638, Y145H); assay: as above
T7 construct: DnaK, the Hsp70 of Escherichia coli, Tyr145 replaced by histidine; source: E. coli ΔdnaK52 cells (BB1553), purified (Ni-IDA, Resource Q), nucleotides removed

DnaK-Y145A = molecular target: T8, DnaK-Y145A (Escherichia coli, UniProt P0A6Y8 1-638, Y145A); assay: as above
T8 construct: DnaK, the Hsp70 of Escherichia coli, Tyr145 replaced by alanine; source: E. coli ΔdnaK52 cells (BB1553), purified (Ni-IDA, Resource Q), nucleotides removed

DnaK-D481A = molecular target: T9, DnaK-D481A (Escherichia coli, UniProt P0A6Y8 1-638, D481A); assay: fluorescence dissociation kinetics (chase with unlabelled peptide); in the presence of ATP; 0.5 μM DnaK and 0.5 μM IAANS-labelled peptide pre-incubated at least 30 min, then mixed with 50-fold excess of unlabelled peptide; HKM buffer, 30 °C; stopped flow
T9 construct: DnaK, the Hsp70 of Escherichia coli, Asp481 replaced by alanine; source: E. coli ΔdnaK52 cells (BB1553), purified (Ni-IDA, Resource Q), nucleotides removed

DnaK-D481K = molecular target: T10, DnaK-D481K (Escherichia coli, UniProt P0A6Y8 1-638, D481K); assay: as above
T10 construct: DnaK, the Hsp70 of Escherichia coli, Asp481 replaced by lysine; source: E. coli ΔdnaK52 cells (BB1553), purified (Ni-IDA, Resource Q), nucleotides removed

DnaK-V440A [7] = molecular target: T2, DnaK-V440A; assay: as above
DnaK-L484A [8] = molecular target: T3, DnaK-L484A; assay: as above

Measured: binding result

B1: HiLyte Fluor 488-labelled σ32-Q132-Q144-C (peptide)
peptide: QRKLFFNLRKTKQC(HiLyte Fluor 488 maleimide)
notes: residues Q132-Q144 of σ32, the E. coli heat shock transcription factor; cysteine added at the C-terminus of the peptide (the '-C' of its name); also called fluorescently labelled peptide derived from σ32
binds: wild-type DnaK [1] | DnaK-V440A [2] | DnaK-L484A [3] | DnaK-D148A [4]

B2: IAANS-labelled peptide σ32-Q132-Q144-C (peptide)
peptide: QRKLFFNLRKTKQC(IAANS)
notes: residues Q132-Q144 of σ32, the E. coli heat shock transcription factor; cysteine added at the C-terminus of the peptide (the '-C' of its name); also called 2-(4'-(iodoacetamido)anilino)naphthalene-6-sulfonic acid labelled σ32-Q132-Q144-C; substrate
not listed: wild-type DnaK [1] | DnaK-V440A [2] | DnaK-L484A [3] | DnaK-D148A [4]
binds: all other assays above
